Source: patent publication US20260146073A1 (published 2026)

T1: mutated CDKN2A, frameshift (p16INK4a -1 or +2 indels between M54 and W100); p14ARF -2 or +1 indels between G69 … (human)
T1 peptide: AVCPWTWLR

T2: mutated CDKN2A, frameshift (p16INK4a -1 or +2 indels between M54 and W100); p14ARF -2 or +1 indels between G69 … (human)
T2 peptide: AVCPWTWLR

T3: WT p16INK4a (CDKN2A) peptide on HLA-A*02:01 (human)
T3 peptide: LPVDLAEEL

T4: WT p16INK4a (CDKN2A) peptide on HLA-A*02:01 (human)
T4 peptide: RLPVDLAEEL


Legend:
[1] = target: T1, mutated CDKN2A, frameshift (p16INK4a -1 …); test: multimer staining
[2] = target: T2, mutated CDKN2A, frameshift (p16INK4a -1 …); test: cytokine release
[3] = target: T3, WT p16INK4a (CDKN2A) peptide on …; test: cytokine release
[4] = target: T4, WT p16INK4a (CDKN2A) peptide on …; test: cytokine release
[5] = target: T2, mutated CDKN2A, frameshift (p16INK4a -1 …); test: multimer staining

| Binder | binding result [3] | binding result [4] | other results |
| --- | --- | --- | --- |
| 1913 TCR-41BB (TCR, V domains shown) Valpha: ELKVEQNPLFLSMQEGKNYTIYCNYSTTSDRLYWYRQDPGKSLESLFVLLSNGAVKQEGRLMASLDTKARLSTLHITAAVHDLSATYFCAVDPTGANSKLTFGKGITLSVRP Vbeta: GVTQTPKHLITATGQRVTLRCSPRSGDLSVYWYQQSLDQGLQFLIQYYNGEERAKGNILERFSAQQFPDLHSELNLSSLELGDSALYFCASSVAISGEETQYFGPGTRLLVL | – | – | binding result [1]: recognises; binding result [2]: recognises |
| 4286 TCR 10-3 (TCR, V domains shown) Valpha: QSVSQHNHHVILSEAASLELGCNYSYGGTVNLFWYVQYPGQHLQLLLKYFSGDPLVKGIKGFEAEFIKSKFSFNLRKPSVQWSDTAEYFCAVKDTGFQKLVFGTGTRLLVSP Vbeta: GAVVSQHPSWVICKSGTSVKIECRSLDFQATTMFWYRQFPKQSLMLMATSNEGSKATYEQGVEKDKFLINHASLTLSTLTVTSAHPEDSSFYICSARGGRNSFEQFFGPGTRLTVL | no recognition | no recognition | – |
| 4286 TCR 10-4 (TCR, V domains shown) Valpha: QSVSQHNHHVILSEAASLELGCNYSYGGTVNLFWYVQYPGQHLQLLLKYFSGDPLVKGIKGFEAEFIKSKFSFNLRKPSVQWSDTAEYFCAVKDTGFQKLVFGTGTRLLVSP Vbeta: GAVVSQHPSWVICKSGTSVKIECRSLDFQATTMFWYRQFPKQSLMLMATSNEGSKATYEQGVEKDKFLINHASLTLSTLTVTSAHPEDSSFYICSARGGARSYEQYFGPGTRLTVT | no recognition | no recognition | – |
| 4286 TCR 10-2 (TCR, V domains shown) Valpha: QKEVEQNSGPLSVPEGAIASLNCTYSDRGSQSFFWYRQYSGKSPELIMFIYSNGDKEDGRFTAQLNKASQYVSLLIRDSQPSDSATYLCAVPNSGYSTLTFGKGTMLLVSP Vbeta: GVTQSPTHLIKTRGQQVTLRCSPISGHKSVSWYQQVLGQGPQFIFQYYEKEERGRGNFPDRFSARQFPNYSSELNVNALLLGDSALYLCASRTGTVTNSYNEQFFGPGTRLTVL | no recognition | no recognition | – |
| 3333 TCR-C (TCR, V domains shown) Valpha: QKEVEQNSGPLSVPEGAIASLNCTYSDRGSQSFFWYRQYSGKSPELIMSIYSNGDKEDGRFTAQLNKASQYVSLLIRDSQPSDSATYLCAVNRAREAAGNKLTFGGGTRVLVKP Vbeta: DIYQTPRYLVIGTGKKITLECSQTMGHDKMYWYQQDPGMELHLIHYSYGVNSTEKGDLSSESTVSRIRTEHFPLTLESARPSHTSQYLCASSRPGSEKLFFGSGTQLSVL | – | – | binding result [5]: recognises |
| 3333 TCR-A (TCR, V domains shown) Valpha: QKEVEQNSGPLSVPEGAIASLNCTYSDRGSQSFFWYRQYSGKSPELIMSIYSNGDKEDGRFTAQLNKASQYVSLLIRDSQPSDSATYLCAVNTASGTYKYIFGTGTRLKVLA Vbeta: not shown | – | – | binding result [5]: recognises |
| 4286 TCR 10-1 (TCR, V domains shown) Valpha: QKEVEQNSGPLSVPEGAIASLNCTYSDRGSQSFFWYRQYSGKSPELIMFIYSNGDKEDGRFTAQLNKASQYVSLLIRDSQPSDSATYLCAVKSWVIFGKGTRLHILP Vbeta: GVTQSPTHLIKTRGQQVTLRCSPISGHKSVSWYQQVLGQGPQFIFQYYEKEERGRGNFPDRFSARQFPNYSSELNVNALLLGDSALYLCASSPSAQSSYGYTFGSGTRLTVV | no recognition | no recognition | – |
